Patent US11198713B2, “Agents modulating beta-catenin functions and methods thereof” (FOG PHARMACEUTICALS, INC., priority 2017, dated 2021)
Numbered stars: 1 amine (or outer) side, 2 acyl side, 3 side chain; on linkers, the order of the positions; unused ones are H or OH. Bridge positions count the residues as written; N and C are the ends. Square brackets hold non-standard residues; d marks the D form. Primed or numbered codes have the meaning given here. MB(4) = Monomer B (PyrS), N-Alloc pyrrolidine stapling residue, (S)-3-amino-1-(allyloxycarbonyl)pyrrolidine-3-carboxylic acid, C=CCOC(=O)N1CC[C@@](N[*:1])(C(=O)[*:2])C1; MB(8) = Monomer B (PyrS), pyrrolidine stapling residue bearing N-allyl carbamate (Alloc), forms carbamate staple with R8 by ring-closing olefin metathesis, i to i+7; MB″ = Monomer B (PyrS), pyrrolidine stapling residue with N-allyl carbamate, forms carbamate staple with R8 by olefin metathesis; MB(6) = Monomer B (PyrS), N-Alloc pyrrolidine stapling residue, forms carbamate staple with R8 by olefin metathesis; Tyr(OMe) = O-methyl tyrosine (source code MeY), COc1ccc(C[C@H](N[*:1])C(=O)[*:2])cc1; MB(5) = Monomer B (PyrS), N-Alloc pyrrolidine stapling residue; Ala(2-furyl) = N[C@@H](Cc1ccco1)C(=O)O; Ala(cPr) = N[C@@H](CC1CC1)C(=O)O; 2Pal = N[C@@H](Cc1ccccn1)C(=O)O; 3Pal = N[C@@H](Cc1cccnc1)C(=O)O; R8 = C=CCCCCCC[C@@](C)(N)C(=O)O; 2Thi = N[C@@H](Cc1cccs1)C(=O)O; Cha = N[C@@H](CC1CCCCC1)C(=O)O; Cba = N[C@@H](CC1CCC1)C(=O)O; Tle = CC(C)(C)[C@H](N)C(=O)O; cpa = 3-cyclopropylalanine; Nva = CCC[C@H](N)C(=O)O

T1: full-length beta-catenin (UniProt P35222 2-781, limits assumed)
T1 construct: mature; also called full-length ß-Catenin; β-catenin
T1 sequence (looked up): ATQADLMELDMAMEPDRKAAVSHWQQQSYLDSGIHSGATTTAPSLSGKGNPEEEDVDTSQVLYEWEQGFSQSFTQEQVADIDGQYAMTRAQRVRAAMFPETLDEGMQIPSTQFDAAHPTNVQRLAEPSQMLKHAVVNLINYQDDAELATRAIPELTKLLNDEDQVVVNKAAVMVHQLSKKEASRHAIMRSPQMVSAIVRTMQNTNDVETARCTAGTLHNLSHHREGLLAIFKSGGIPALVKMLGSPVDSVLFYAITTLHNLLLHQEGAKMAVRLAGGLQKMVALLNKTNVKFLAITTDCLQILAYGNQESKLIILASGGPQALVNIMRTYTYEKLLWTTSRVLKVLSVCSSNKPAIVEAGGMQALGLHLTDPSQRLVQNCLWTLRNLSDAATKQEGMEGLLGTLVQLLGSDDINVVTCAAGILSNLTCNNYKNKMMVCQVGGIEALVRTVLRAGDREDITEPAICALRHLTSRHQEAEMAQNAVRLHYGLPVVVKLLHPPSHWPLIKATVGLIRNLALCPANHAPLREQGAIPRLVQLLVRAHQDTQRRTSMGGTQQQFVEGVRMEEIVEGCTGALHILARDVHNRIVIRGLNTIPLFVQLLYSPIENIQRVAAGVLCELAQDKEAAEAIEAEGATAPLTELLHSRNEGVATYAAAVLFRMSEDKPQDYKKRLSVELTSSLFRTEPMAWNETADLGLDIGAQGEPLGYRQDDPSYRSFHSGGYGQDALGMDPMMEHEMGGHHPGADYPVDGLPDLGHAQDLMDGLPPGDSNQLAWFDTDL

B1: FP0560c Isomer 2 (peptide)
peptide: Ac-A[R8]ILDA[2Pal]I[MB(8)]SVW-NH2
modifications: staple 2-9; not fully specified; printed as Ac-A-R8-I-L-D-A-2pyr-I-MB-S-V-W-NH2
B2: FP0563c Isomer 1 (peptide)
peptide: Ac-A[R8]ILDA[2Pal]I[MB″]WVW-NH2
modifications: staple 2-9; not fully specified; printed as Ac-A-R8-I-L-D-A-2pyr-I-MB-W-V-W-NH2
B3: FP0562c Isomer 2 (peptide)
peptide: Ac-A[R8]ILDA[2Pal]I[MB(8)]VVW-NH2
modifications: staple 2-9; not fully specified; printed as Ac-A-R8-I-L-D-A-2pyr-I-MB-V-V-W-NH2
B4: FP0561c Isomer 2 (peptide)
peptide: Ac-A[R8]ILDA[2Pal]I[MB(8)]TVW-NH2
modifications: staple 2-9; not fully specified; printed as Ac-A-R8-I-L-D-A-2pyr-I-MB-T-V-W-NH2
B5: FP0563c Isomer 2 (peptide)
peptide: Ac-A[R8]ILDA[2Pal]I[MB″]WVW-NH2
modifications: staple 2-9; not fully specified; printed as Ac-A-R8-I-L-D-A-2pyr-I-MB-W-V-W-NH2
B6: FP0567c Isomer 2 (peptide)
peptide: Ac-A[R8]ILDA[2Pal]I[MB(6)][Nva]VW-NH2
modifications: staple 2-9; not fully specified; printed as Ac-A-R8-I-L-D-A-2pyr-I-MB-Nva-V-W-NH2
B7: FP0569c Isomer 2 (peptide)
peptide: Ac-A[R8]ILDA[2Pal]I[MB(6)][Ala(2-furyl)]VW-NH2
modifications: staple 2-9; not fully specified; printed as Ac-A-R8-I-L-D-A-2pyr-I-MB-fur-V-W-NH2
B8: FP0565c Isomer 1 (peptide)
peptide: Ac-A[R8]ILDA[2Pal]I[MB″][Cba]VW-NH2
modifications: staple 2-9; not fully specified; printed as Ac-A-R8-I-L-D-A-2pyr-I-MB-Cba-V-W-NH2
B9: FP0573c Isomer 2 (peptide)
peptide: Ac-A[R8]ILDA[2Pal]I[MB(5)][3Pal]VW-NH2
modifications: staple 2-9; not fully specified; printed as Ac-A-R8-I-L-D-A-2pyr-I-MB-3pyr-V-W-NH2
B10: FP0572c Isomer 1 (peptide)
peptide: Ac-A[R8]ILDA[2Pal]I[MB(5)][2Pal]VW-NH2
modifications: staple 2-9; not fully specified; printed as Ac-A-R8-I-L-D-A-2pyr-I-MB-2pyr-V-W-NH2
B11: FP0561c Isomer 1 (peptide)
peptide: Ac-A[R8]ILDA[2Pal]I[MB(8)]TVW-NH2
modifications: staple 2-9; not fully specified; printed as Ac-A-R8-I-L-D-A-2pyr-I-MB-T-V-W-NH2
B12: FP0573c Isomer 1 (peptide)
peptide: Ac-A[R8]ILDA[2Pal]I[MB(5)][3Pal]VW-NH2
modifications: staple 2-9; not fully specified; printed as Ac-A-R8-I-L-D-A-2pyr-I-MB-3pyr-V-W-NH2
B13: FP0566c Isomer 1 (peptide)
peptide: Ac-A[R8]ILDA[2Pal]I[MB(6)][Cha]VW-NH2
modifications: staple 2-9; not fully specified; printed as Ac-A-R8-I-L-D-A-2pyr-I-MB-Cha-V-W-NH2
B14: FP0567c Isomer 1 (peptide)
peptide: Ac-A[R8]ILDA[2Pal]I[MB(6)][Nva]VW-NH2
modifications: staple 2-9; not fully specified; printed as Ac-A-R8-I-L-D-A-2pyr-I-MB-Nva-V-W-NH2
B15: FP0565c Isomer 2 (peptide)
peptide: Ac-A[R8]ILDA[2Pal]I[MB(6)][Cba]VW-NH2
modifications: staple 2-9; not fully specified; printed as Ac-A-R8-I-L-D-A-2pyr-I-MB-Cba-V-W-NH2
B16: FP0574c Isomer 2 (peptide)
peptide: Ac-A[R8]ILDA[2Pal]I[MB(4)][cpa]VW-NH2
modifications: staple 2-9; not fully specified; printed as Ac-A-R8-I-L-D-A-2pyr-I-MB-cpa-V-W-NH2
B17: FP0564c Isomer 1 (peptide)
peptide: Ac-A[R8]ILDA[2Pal]I[MB″]YVW-NH2
modifications: staple 2-9; not fully specified; printed as Ac-A-R8-I-L-D-A-2pyr-I-MB-Y-V-W-NH2
B18: FP0571c Isomer 1 (peptide)
peptide: Ac-A[R8]ILDA[2Pal]I[MB(6)][2Thi]VW-NH2
modifications: staple 2-9; not fully specified; printed as Ac-A-R8-I-L-D-A-2pyr-I-MB-thi-V-W-NH2
B19: FP0574c Isomer 1 (peptide)
peptide: Ac-A[R8]ILDA[2Pal]I[MB(5)][Ala(cPr)]VW-NH2
modifications: staple 2-9; not fully specified; printed as Ac-A-R8-I-L-D-A-2pyr-I-MB-cpa-V-W-NH2
B20: FP0571c Isomer 2 (peptide)
peptide: Ac-A[R8]ILDA[2Pal]I[MB(6)][2Thi]VW-NH2
modifications: staple 2-9; not fully specified; printed as Ac-A-R8-I-L-D-A-2pyr-I-MB-thi-V-W-NH2
B21: FP0568c Isomer 2 (peptide)
peptide: Ac-A[R8]ILDA[2Pal]I[MB(6)][Tle]VW-NH2
modifications: staple 2-9; not fully specified; printed as Ac-A-R8-I-L-D-A-2pyr-I-MB-tLeu-V-W-NH2
B22: FP0575c Isomer 1 (peptide)
peptide: Ac-A[R8]ILDA[2Pal]I[MB(4)][Tyr(OMe)]VW-NH2
modifications: staple 2-9; not fully specified; printed as Ac-A-R8-I-L-D-A-2pyr-I-MB-MeY-V-W-NH2
B23: FP0568c Isomer 1 (peptide)
peptide: Ac-A[R8]ILDA[2Pal]I[MB(6)][Tle]VW-NH2
modifications: staple 2-9; not fully specified; printed as Ac-A-R8-I-L-D-A-2pyr-I-MB-tLeu-V-W-NH2
B24: FP0562c Isomer 1 (peptide)
peptide: Ac-A[R8]ILDA[2Pal]I[MB(8)]VVW-NH2
modifications: staple 2-9; not fully specified; printed as Ac-A-R8-I-L-D-A-2pyr-I-MB-V-V-W-NH2
B25: FP0564c Isomer 2 (peptide)
peptide: Ac-A[R8]ILDA[2Pal]I[MB″]YVW-NH2
modifications: staple 2-9; not fully specified; printed as Ac-A-R8-I-L-D-A-2pyr-I-MB-Y-V-W-NH2
B26: FP0569c Isomer 1 (peptide)
peptide: Ac-A[R8]ILDA[2Pal]I[MB(6)][Ala(2-furyl)]VW-NH2
modifications: staple 2-9; not fully specified; printed as Ac-A-R8-I-L-D-A-2pyr-I-MB-fur-V-W-NH2

Target: T1, full-length beta-catenin
Assay: competition FP; NB = no binding detected
Method: In some embodiments, a competition fluorescence polarization assay is used to assess binding of provided compounds to beta-catenin. In an exemplary procedure, solutions of provided compounds, e.g., provided stapled peptides, were prepared in a buffer (e.g., 50 mM Tris pH 8.0, 250 mM NaCl, 2% glycerol, 0.5 mM EDTA, 0.02% w/v sodium azide) using a 3-fold serial dilution from 5 µM. Probe solution (15 nM full-length ß-Catenin, 20 nM FITC labeled peptide in buffer) was prepared and incubated for a period of time, e.g., 5 minutes, and the a volume, e.g., 40 µL per well plated in suitable plate, e.g., a black polystyrene 384-well plate (Corning). Equal volume of the serial diluted peptide was added to the plate and incubated protected from light for 15 minutes prior to read. Reads were performed on a Spectramax M5 (Molecular Devices) in duplicate. Suitable probe was FITC-PEG1-PQ-S5-ILD-S5-HVRRVWR (SEQ ID NO: 1) (hydrocarbon staple formed by two S5 via olefin metathesis) and/or FITC-bA-PQ-S5-ILD-S5-HVRRVWR (SEQ ID NO: 3) (hydrocarbon staple formed by two S5 via olefin metathesis). […] Another peptide, FPO217c (Ac-AR_8ILDAHIM$B5$RVW (SEQ ID NO: 280), with N-terminal proline removed and valine replaced with isoleucine compared to FP0025c) was prepared.

Binder | binding result
B1 | no binding
B2 | no binding
B3 | no binding
B4 | no binding
B5 | no binding
B6 | no binding
B7 | no binding
B8 | no binding
B9 | no binding
B10 | no binding
B11 | no binding
B12 | no binding
B13 | no binding
B14 | no binding
B15 | no binding
B16 | no binding
B17 | no binding
B18 | no binding
B19 | no binding
B20 | no binding
B21 | no binding
B22 | no binding
B23 | no binding
B24 | no binding
B25 | no binding
B26 | no binding
